Patent US20110256132A1 (published 2011)
* marks the point of attachment. Biotin = O=C1N[C@H]2[C@H](CS[C@H]2CCCCC(=O)*)N1

Experiments:
[1] = biological target: T1, artificial myostatin linear peptide 21 (cysteine pairing not given here); assay: SRU BIND reader, peptides captured on streptavidin biosensor plate
T1 construct: also called Peptide No 21
T1 peptide: Biotin-SGSGNYCSGECEFVFLQK-NH2
Description: (§1) Work was carried out on an SRU BIND reader (SRU Biosystems). A streptavidin biosensor plate was washed, a baseline reading taken, and biotinylated peptides captured onto the streptavidin coated biosensor plate. The plate was washed again, and a new baseline reading taken, antibody was then added and binding monitored.

[2] = biological target: T2, artificial myostatin linear peptide 39 (SMILES …); assay: as above
T2 construct: also called Peptide No 39
T2 peptide: Biotin-SGSGTKMSPINMLYFNGK-NH2
Description: as §1

[3] = biological target: T3, artificial myostatin linear peptide 49 (cysteine pairing not given here); assay: as above
T3 construct: also called Peptide No 49
T3 peptide: Biotin-SGSGGKIPAMVVDRCGCS-OH
Description: as §1

[4] = biological target: T4, artificial myostatin linear peptide 43 (SMILES …); assay: as above
T4 construct: also called Peptide No 43
T4 peptide: Biotin-SGSGLYFNGKEQIIYGKI-NH2
Description: as §1

[5] = biological target: T5, artificial myostatin linear peptide 5 (cysteine pairing not given here); assay: as above
T5 construct: also called Peptide No 5
T5 peptide: Biotin-SGSGHSTESRCCRYPLTV-NH2
Description: as §1

[6] = biological target: T6, artificial myostatin linear peptide 9 (SMILES …); assay: as above
T6 construct: also called Peptide No 9
T6 peptide: Biotin-SGSGRYPLTVDFEAFGWD-NH2
Description: as §1

[7] = biological target: T7, artificial myostatin linear peptide 13 (SMILES …); assay: as above
T7 construct: also called Peptide No 13
T7 peptide: Biotin-SGSGEAFGWDWIIAPKRY-NH2
Description: as §1

[8] = biological target: T8, artificial myostatin linear peptide 19 (cysteine pairing not given here); assay: as above
T8 construct: also called Peptide No 19
T8 peptide: Biotin-SGSGRYKANYCSGECEFV-NH2
Description: as §1

[9] = biological target: T9, artificial myostatin linear peptide 45 (SMILES …); assay: as above
T9 construct: also called Peptide No 45
T9 peptide: Biotin-SGSGGKEQIIYGKIPAMV-NH2
Description: as §1

[10] = biological target: T10, artificial myostatin linear peptide 31 (cysteine pairing not given here); assay: as above
T10 construct: also called Peptide No 31
T10 peptide: Biotin-SGSGVHQANPRGSAGPCC-NH2
Description: as §1

[11] = biological target: T11, artificial myostatin linear peptide 25 (SMILES …); assay: as above
T11 construct: also called Peptide No 25
T11 peptide: Biotin-SGSGFVFLQKYPHTHLVH-NH2
Description: as §1

[12] = biological target: T12, artificial myostatin linear peptide 15 (SMILES …); assay: as above
T12 construct: also called Peptide No 15
T12 peptide: Biotin-SGSGWDWIIAPKRYKANY-NH2
Description: as §1

[13] = biological target: T13, artificial myostatin linear peptide 3 (cysteine pairing not given here); assay: as above
T13 construct: also called Peptide No 3
T13 peptide: Biotin-SGSGDCDEHSTESRCCRY-NH2
Description: as §1

[14] = biological target: T14, artificial myostatin linear peptide 1 (not fully specified); assay: as above
T14 construct: also called Peptide No 1
T14 peptide: H-DFGLDCDEHSTESRGSG-NH2
Description: as §1

[15] = biological target: T15, artificial myostatin linear peptide 17 (SMILES …); assay: as above
T15 construct: also called Peptide No 17
T15 peptide: Biotin-SGSGIAPKRYKANYCSGE-NH2
Description: as §1

[16] = biological target: T16, artificial myostatin linear peptide 37 (cysteine pairing not given here); assay: as above
T16 construct: also called Peptide No 37
T16 peptide: Biotin-SGSGCCTPTKMSPINMLY-NH2
Description: as §1

[17] = biological target: T17, artificial myostatin linear peptide 33 (cysteine pairing not given here); assay: as above
T17 construct: also called Peptide No 33
T17 peptide: Biotin-SGSGNPRGSAGPCCTPTK-NH2
Description: as §1

[18] = biological target: T18, artificial myostatin linear peptide 27 (SMILES …); assay: as above
T18 construct: also called Peptide No 27
T18 peptide: Biotin-SGSGQKYPHTHLVHQANP-NH2
Description: as §1

[19] = biological target: T19, mature myostatin (recombinant, dimeric) (mouse polyprotein used for in-house …, UniProt O08689 268-376); assay: FORTEbio bio-layer interferometry, myostatin amine-coupled to sensor, 20 nM antibody, 1:1 fit
T19 construct: also called GDF-8; recombinant myostatin
T19 sequence: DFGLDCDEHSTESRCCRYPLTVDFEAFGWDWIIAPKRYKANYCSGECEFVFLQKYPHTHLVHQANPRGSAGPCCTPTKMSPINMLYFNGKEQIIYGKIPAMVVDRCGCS
Description: The affinity of 10B3 mouse parental and H2L2-C91S developability variant for recombinant myostatin was also assessed by FORTEbio™ (bio-layer inferometry) analysis. FORTEbio™ analyses were carried out by antigen capture. Myostatin (in-house, see above at 1.1) was coupled onto amine reactive biosensors by primary amine coupling in accordance with the manufacturer's instructions. Antibodies were then captured onto this surface at 20 nM concentrations. The data was analysed using the evaluation software inherent in the machine and the data analysed using 1:1 fit (see Table 16). Due to the limited number of myostatin molecules bound to the sensor surface and the low antibody concentration, avidity effects are reduced, enabling a more accurate measure of affinity compared to the Biacore analyses. […] However, due to the nature of the binding of the antibodies to myostatin, these values are mainly used for ranking purposes, and the affinity may not be representative of the affinity in vivo.

[20] = biological target: T19, mature myostatin (recombinant, dimeric); assay: BIAcore T100, antibody captured on anti-mouse IgG (C1 chip), myostatin analyte, all curves Bivalent model
Description: The affinity of 10B3 mouse parental and 10B3C for recombinant myostatin was assessed by BIAcore™ (surface plasmon resonance) analysis. Analysis was carried out by the use of a capture surface: anti-mouse IgG was coupled to a C1 chip by primary amine coupling for 10B3 mouse parental; and a protein A surface was created on a C1 chip by primary amine coupling for 10B3 chimera.
After capture, recombinant myostatin was passed over the surface at 64 nM, 16 nM, 4 nM, 1 nM, 0.25 nM and 0.0625 nM, with a buffer injection (i.e. 0 nM) used for double referencing. There was a regeneration step between each analyte injection, after which the new antibody capture event occurred before the next injection of myostatin. The data was analysed using both the 1:1 model and the Bivalent model inherent to the T100 machines analysis software (see Table 6). Both capture surfaces could be regenerated using 100 mM phosphoric acid, the work was carried out using HBS-EP as the running buffer and using 25° C. as the analysis temperature.

[21] = biological target: T19, mature myostatin (recombinant, dimeric); assay: cell-based or functional assay

- binding result [1]: no binding
- binding result [2]: no binding
- binding result [3]: no binding
- binding result [4]: no binding
- binding result [5]: no binding
- binding result [6]: no binding
- binding result [7]: no binding
- binding result [8]: no binding
- binding result [9]: no binding
- binding result [10]: no binding
- binding result [11]: no binding
- binding result [12]: no binding
- binding result [13]: no binding
- binding result [14]: no binding
- binding result [15]: no binding
- binding result [16]: no binding
- binding result [17]: no binding
- binding result [18]: no binding
- Kd [19]: 0.31 nM
- koff [19]: 0.000131 s⁻¹
- kon [19]: 424000 M⁻¹ s⁻¹
- Kd [20]: 5.9 nM
- Mean IC50, A204 in vitro activity assay [21]: 8.5 nM
B1: mouse monoclonal antibody 10B3 (antibody, V domains shown)
VH: EVQLQQSGPELVKPGASVKISCKASGYSFTGYFMHWVKQSHGNILDWIGNIYPYNGVSNYNQRFKAKATLTVDKSSSTAYMELRSLTSEDSAVYYCARRYYYGTGPADWYFDVWGTGTTVTVSS
VL: DIKMTQSPSSMYASLRERVTITCKASQDINSYLSWFQQKPGKSPKTLIYRANRLVDGVPSRFSGSGSGQDYSLTISSLEYEDMGIYYCLQCDEFPLTFGAGTKLELK
notes: Mouse IgG2a/kappa from hybridoma; also called 10B3 mouse parental; 10B3 parental
